Laboratory results published in patent US20220411483A1 (Chugai, published 2022).
Substitutions are numbered along the chain they refer to. Numbers in names are those of the source.

B1: IL6R-BP318/IL6R-L (antibody, human IgG1, kappa, name in EU numbering)
heavy: QVQLQESGPGLVKPSETLSLTCAVSGHSISHDHAWSWVRQPPGEGLEWIGFISYSGITNYNPSLQGRVTISRDNSKNTLYLQMNSLRAEDTAVYYCARSLARTTAMDYWGEGTLVTVSSASTKGPSVFPLAPSSKSTSGGTAALGCLVKDYFPEPVTVSWNSGALTSGVHTFPAVLQSSGLYSLSSVVTVPSSSLGTQTYICNVNHKPSNTKVDKKVEPKSCDKTHTCPPCPAPDLLGDDSVFLFPPKPKDTLMISRTPEVTCVVVKVSEEDGEVKFNWYVDGVEVHNAKTKPREEQYNSTYRVVSVLTVLHQDWLNGKEYKCKVSNKALPAPIEKTISKAKGQPREPQVYTLPPSRDELTKNQVSLTCLVKGFYPSDIAVEWESNGQPENNYKTTPPVLDSDGSFFLYSKLTVDKSRWQQGNVFSCSVMHEALHNHYTQESLSLSP
light: not shown
B2: IL6R-BP321/IL6R-L (antibody, human IgG1, kappa, name in EU numbering)
heavy: B1 heavy with K267N
light: not shown
B3: IL6R-BP355/IL6R-L (antibody, human IgG1, kappa, name in EU numbering)
heavy: B1 heavy with K267D, S269K
light: not shown
B4: IL6R-BP361/IL6R-L (antibody, human IgG1, kappa, name in EU numbering)
heavy: B1 heavy with K267D, S269R
light: not shown
B5: IL6R-BP325/IL6R-L (antibody, human IgG1, kappa, name in EU numbering)
heavy: B1 heavy with K267S
light: not shown
B6: IL6R-BP267/IL6R-L (antibody, human IgG1, kappa)
heavy: B1 heavy with K267D
light: not shown
notes: IL6R-BF648 with E233D/G237D/H268E/P271G
B7: IL6R-BP365/IL6R-L (antibody, human IgG1, kappa, name in EU numbering)
heavy: B1 heavy with K267D, S269Y
light: not shown
B8: IL6R-BP324/IL6R-L (antibody, human IgG1, kappa, name in EU numbering)
heavy: B1 heavy with K267R
light: not shown
B9: IL6R-PD033/IL6R-L (antibody, human IgG1, kappa)
heavy: B1 heavy with D235E, L236K, D239G, M254Y, K267D, E270H, G273P, N436Y, E441K
light: not shown
notes: human IgG1
B10: IL6R-PD044/IL6R-L (antibody, human IgG1, kappa)
heavy: B1 heavy with D235E, L237A, D239G, M254Y, K267D, E270H, G273P, N436Y, E441K
light: not shown
notes: human IgG1
B11: IL6R-PD026/IL6R-L (antibody, human IgG1, kappa)
heavy: B1 heavy with D235E, L236A, D239G, M254Y, K267D, E270H, G273P, N436Y, E441K
light: not shown
notes: human IgG1
B12: IL6R-PD035/IL6R-L (antibody, human IgG1, kappa)
heavy: B1 heavy with D235E, L236N, D239G, M254Y, K267D, E270H, G273P, N436Y, E441K
light: not shown
notes: human IgG1
B13: IL6R-PD072/IL6R-L (antibody, human IgG1, kappa)
heavy: B1 heavy with D235E, G238Q, D239G, M254Y, K267D, E270H, G273P, N436Y, E441K
light: not shown
notes: human IgG1
B14: IL6R-PD090/IL6R-L (antibody, human IgG1, kappa)
heavy: B1 heavy with D235E, D239R, M254Y, K267D, E270H, G273P, N436Y, E441K
light: not shown
notes: human IgG1
B15: IL6R-PD085/IL6R-L (antibody, human IgG1, kappa)
heavy: B1 heavy with D235E, D239K, M254Y, K267D, E270H, G273P, N436Y, E441K
light: not shown
notes: human IgG1
B16: IL6R-PD038/IL6R-L (antibody, human IgG1, kappa)
heavy: B1 heavy with D235E, L236R, D239G, M254Y, K267D, E270H, G273P, N436Y, E441K
light: not shown
notes: human IgG1
B17: IL6R-F652/IL6R-L (antibody, human IgG1, kappa)
heavy: B1 heavy with D235E, D239G, M254Y, K267D, E270H, G273P, N436Y, E441K
light: not shown
notes: human IgG1
B18: IL6R-PD031/IL6R-L (antibody, human IgG1, kappa)
heavy: B1 heavy with D235E, L236H, D239G, M254Y, K267D, E270H, G273P, N436Y, E441K
light: not shown
notes: human IgG1
B19: IL6R-2B154/IL6R-L (antibody, human IgG1, kappa)
heavy: B1 heavy with D235E, D239G, K267D, E270H, G273P, S300M
light: not shown
B20: IL6R-2B169/IL6R-L (antibody, human IgG1, kappa)
heavy: B1 heavy with D235E, D239G, K267D, E270H, G273P, V325I
light: not shown
B21: IL6R-PD023/IL6R-L (antibody, human IgG1, kappa)
heavy: B1 heavy with D235E, D239G, M254Y, K267D, E270H, G273P, A332H, N436Y, E441K
light: not shown
B22: IL6R-PD013/IL6R-L (antibody, human IgG1, kappa)
heavy: B1 heavy with D235E, D239G, M254Y, K267D, E270H, G273P, S326H, N436Y, E441K
light: not shown
B23: IL6R-PD024/IL6R-L (antibody, human IgG1, kappa)
heavy: B1 heavy with D235E, D239G, M254Y, K267D, E270H, G273P, A332Y, N436Y, E441K
light: not shown
B24: IL6R-F652/IL6R-L (antibody, human IgG1, kappa)
heavy: B1 heavy with D235E, D239G, M254Y, K267D, E270H, G273P, N436Y, E441K
light: not shown
notes: IL6R-F648 (P238D) with M252Y and N434Y
B25: IL6R-PD089/IL6R-L (antibody, human IgG1, kappa)
heavy: B1 heavy with D235E, D239Q, M254Y, K267D, E270H, G273P, N436Y, E441K
light: not shown
B26: IL6R-PD047/IL6R-L (antibody, human IgG1, kappa)
heavy: B1 heavy with D235E, L237F, D239G, M254Y, K267D, E270H, G273P, N436Y, E441K
light: not shown
B27: IL6R-PD004/IL6R-L (antibody, human IgG1, kappa)
heavy: B1 heavy with D235E, D239G, M254Y, K267D, E270P, G273P, N436Y, E441K
light: not shown
B28: IL6R-PD012/IL6R-L (antibody, human IgG1, kappa)
heavy: B1 heavy with D235E, D239G, M254Y, K267D, E270H, G273P, S326N, N436Y, E441K
light: not shown

What follows are binders tested against T1, FcgRIIb (human, UniProt P31994 43-217) (assay: SPR, amount bound per captured antibody).
T1 construct: extracellular domain; also called FcγRIIb
T1 sequence (looked up): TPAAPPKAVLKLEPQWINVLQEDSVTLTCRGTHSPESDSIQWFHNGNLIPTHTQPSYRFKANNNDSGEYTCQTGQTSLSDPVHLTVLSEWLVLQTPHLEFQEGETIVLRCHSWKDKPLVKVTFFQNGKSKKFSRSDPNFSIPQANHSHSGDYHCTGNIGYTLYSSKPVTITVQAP

Row | Binder | Relative FcgRIIb-binding Activity
1 | B1 | 2.3 IL6R-BP267/IL6R-L=100
2 | B2 | 31.7 IL6R-BP267/IL6R-L=100
3 | B3 | 14.4 IL6R-BP267/IL6R-L=100
4 | B4 | 27.7 IL6R-BP267/IL6R-L=100
5 | B5 | 21 IL6R-BP267/IL6R-L=100
6 | B6 | 100 IL6R-BP267/IL6R-L=100
7 | B7 | 16.7 IL6R-BP267/IL6R-L=100
8 | B8 | 3.2 IL6R-BP267/IL6R-L=100

What follows are binders tested against T2, FcgRIIaR (human, UniProt P12318 34-217) (assay: SPR, amount bound per captured antibody).
T2 construct: extracellular domain; also called FcγRIIa R type; FcγRIIa (R type)
T2 sequence (looked up): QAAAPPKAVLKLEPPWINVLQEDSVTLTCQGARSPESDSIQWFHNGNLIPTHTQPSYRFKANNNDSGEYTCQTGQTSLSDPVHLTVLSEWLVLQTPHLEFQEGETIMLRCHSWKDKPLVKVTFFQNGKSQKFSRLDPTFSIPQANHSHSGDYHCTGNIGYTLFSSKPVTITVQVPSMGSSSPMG

Row | Binder | Relative FcgRIIaR-binding Activity
9 | B1 | 4.3 IL6R-BP267/IL6R-L=100
10 | B2 | 16.3 IL6R-BP267/IL6R-L=100
11 | B3 | 11.6 IL6R-BP267/IL6R-L=100
12 | B4 | 17.3 IL6R-BP267/IL6R-L=100
13 | B5 | 11.6 IL6R-BP267/IL6R-L=100
14 | B6 | 100 IL6R-BP267/IL6R-L=100
15 | B8 | 3.7 IL6R-BP267/IL6R-L=100

Each binder was assayed against T3, FcγRIIb extracellular domain with C-terminal His tag (human, UniProt P31994 43-217) (assay: SPR; amount bound divided by amount of IL6R-F652/IL6R-L bound, x100).
T3 construct: extracellular domain; also called FcgRIIb; not shown: His tag at the C terminus
T3 sequence (looked up): T1 sequence (looked up)

Row | Binder | Relative FcgRIIb-binding Activity
16 | B9 | 6.2
17 | B10 | 7.9
18 | B11 | 37.2
19 | B12 | 38.3
20 | B13 | 10.4
21 | B14 | 23.7
22 | B15 | 11.8
23 | B16 | 5.4
24 | B17 | 100
25 | B18 | 27.6

Each binder was assayed against T4, FcγRIIa R type extracellular domain with C-terminal His tag (human, UniProt P12318 34-217) in the same assay as above.
T4 construct: extracellular domain; also called FcgRIIaR; not shown: His tag at the C terminus
T4 sequence (looked up): T2 sequence (looked up)

Row | Binder | Relative FcgRIIaR-binding Activity
26 | B9 | 11.2
27 | B10 | 37.7
28 | B11 | 67.2
29 | B12 | 44.4
30 | B13 | 20.6
31 | B14 | 7.9
32 | B15 | 0.5
33 | B16 | 7.8
34 | B17 | 100
35 | B18 | 41.8

What follows are binders tested against T5, FcγRIIa R type extracellular domain, His tag (human, UniProt P12318 34-217) (assay: SPR, bound amount per captured antibody).
T5 construct: extracellular domain; also called FcgRIIaR
T5 sequence (looked up): T2 sequence (looked up)

Row | Binder | Relative FcgRIIaR-binding Activity
36 | B19 | 77.5 % of IL6R-BF648/IL6R-L
37 | B20 | 90.8 % of IL6R-BF648/IL6R-L

These binders were tested against T6, FcγRIIb extracellular domain, His tag (human, UniProt P31994 43-217) (assay: SPR, bound amount per captured antibody).
T6 construct: extracellular domain; also called FcgRIIb
T6 sequence (looked up): T1 sequence (looked up)

Row | Binder | Relative FcgRIIb-binding Activity
38 | B19 | 79.4 % of IL6R-BF648/IL6R-L
39 | B20 | 103 % of IL6R-BF648/IL6R-L

Biological target: T5, FcγRIIa R type extracellular domain, …
Assay: SPR, bound amount per captured antibody
Remark: another data set of the same source

Row | Binder | Relative FcgRIIaR-binding Activity
40 | B21 | 73.9 % of IL6R-F652/IL6R-L
41 | B22 | 90.8 % of IL6R-F652/IL6R-L
42 | B23 | 60 % of IL6R-F652/IL6R-L
43 | B24 | 100 % of IL6R-F652/IL6R-L
44 | B25 | 65 % of IL6R-F652/IL6R-L
45 | B26 | 89.9 % of IL6R-F652/IL6R-L
46 | B27 | 77 % of IL6R-F652/IL6R-L
47 | B28 | 92.5 % of IL6R-F652/IL6R-L

Biological target: T6, FcγRIIb extracellular domain, His tag
Assay: SPR, bound amount per captured antibody
Remark: another data set of the same source

Row | Binder | Relative FcgRIIb-binding Activity
48 | B21 | 102 % of IL6R-F652/IL6R-L
49 | B22 | 91.9 % of IL6R-F652/IL6R-L
50 | B23 | 74.4 % of IL6R-F652/IL6R-L
51 | B24 | 100 % of IL6R-F652/IL6R-L
52 | B25 | 66 % of IL6R-F652/IL6R-L
53 | B26 | 95.4 % of IL6R-F652/IL6R-L
54 | B27 | 80.5 % of IL6R-F652/IL6R-L
55 | B28 | 102 % of IL6R-F652/IL6R-L
